Laboratory results reported in patent publication US20140302034A1 (STEM CENTRX, published 2014).

T1: mouse EFNA3 (mouse, UniProt O08545)
T1 construct: the sheet prints only 'Ms XR'; also called mouse ephrin-A3 homolog
T1 sequence (ligand, looked up): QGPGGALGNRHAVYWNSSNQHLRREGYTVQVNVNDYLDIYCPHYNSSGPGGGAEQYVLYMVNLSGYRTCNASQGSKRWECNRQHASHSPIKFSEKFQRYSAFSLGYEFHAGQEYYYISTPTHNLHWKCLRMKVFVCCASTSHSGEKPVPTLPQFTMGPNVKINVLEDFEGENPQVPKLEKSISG

T2: recombinant human EFNA3 His fusion protein (human, UniProt P52797 23-214)
T2 construct: also called ephrinA3-His; immobilized human EFNA3; not shown: His tag
T2 sequence: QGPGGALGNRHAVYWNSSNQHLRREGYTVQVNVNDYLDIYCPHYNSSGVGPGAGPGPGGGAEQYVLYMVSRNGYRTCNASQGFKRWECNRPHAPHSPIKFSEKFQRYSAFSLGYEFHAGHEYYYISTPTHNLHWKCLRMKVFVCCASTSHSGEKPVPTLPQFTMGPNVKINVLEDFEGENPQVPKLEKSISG


Experiments:
[1] = biological target: recombinant human EFNA1 His fusion protein (human) (UniProt P20827); test: BLI (ForteBio RED), antigen concentration series; column Affinity (nM)
mouse EFNA3 = biological target: T1, mouse EFNA3; test: cross-reactivity with the mouse homolog (e.g. by ForteBio)
[2] = biological target: T2, recombinant human EFNA3 His fusion …; test: BLI (ForteBio RED), antigen concentration series; column Affinity (nM)
Procedure: Various methods were used to analyze the immunochemical characteristics of selected EFNA1 and EFNA3 modulators generated as set forth above. Specifically, a number of these antibodies were characterized as to affinity, kinetics, binning, and cross reactivity with regard to cynomolgus and mouse homologs (e.g., by ForteBio). The reactivity of the modulators was also measured by Western blot using reduced and non-reduced samples to provide some indication as to whether the epitopes were linear or not. In addition, the antibodies were tested for their ability to neutralize (e.g., block receptor ligand interaction as per Example 11), and were benchmarked for their relative EC₅₀ of killing by in vitro cytotoxicity assay (e.g., as per Examples 12-14). The results of this characterization are set forth in tabular form in FIG. 8 for modulators that primarily react with EFNA1 and in FIG. 9 for modulators that primarily react with EFNA3. Affinities and kinetic constants kₒₙ and koff of the selected modulators were measured using bio-layer interferometry analysis on a ForteBio RED (ForteBio, Inc.) with a standard antigen concentration series.

Sequence of recombinant human EFNA1 His fusion protein (human) (P20827 19-182 limits assumed): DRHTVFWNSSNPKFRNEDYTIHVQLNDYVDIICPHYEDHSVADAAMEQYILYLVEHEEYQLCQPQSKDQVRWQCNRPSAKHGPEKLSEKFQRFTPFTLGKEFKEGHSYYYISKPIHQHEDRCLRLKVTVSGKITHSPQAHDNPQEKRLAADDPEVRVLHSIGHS

| Binder | Kd [1] | binding result (mouse EFNA3) | Kd [2] |
| --- | --- | --- | --- |
| SC11.51 (antibody, V domains shown, Murine monoclonal antibody from a hybridoma; also called EFNA3 modulator SC11.51) VH: EVQLQQSGPELVKPGASVKISCKASGYTFTDYYMNWVKQTHGKSLEWIGDITPNSGGPTYNQNFKGKATLTVDRSSTTAFMELRSLTSDDSAVYYCVRSAYYYGTNYDFDYWGQGTTLTVSS VL: QIVLTQSPAIMSASPGEKVTMTCSASSSVTYMYWYQQKPGSSPKPWIYRTSNLASGVPTRFSGSGSGTSYSLTISSVEAEDTATYYCQQYSDYPLTFGAGTKLELK | – | – | 1 nM |
| SC11.32 (antibody, V domains shown, Murine monoclonal antibody from a hybridoma; also called EFNA3 modulator SC11.32) VH: QVQLQQPGAEIVRPGASVKLSCKASGYTFTAYWMHWVKQRPGQGPEWIGAIDPSDSYTYYNQKFKGKATLTVDTSSNSAYMQLSSLTSEDSAVYFCARWDYYDGNWGQGTTLTVSS VL: DVVMTQTPLSLPVSLGDQASISCRSSQSLVHSDGNTYLHWYLQKPGQSPKLLIYRVSNRFSGVPDRFSGSGSGTDFTLKISRVEAEDLGVYFCSQSTHVPYTFGGGTKLEIK | – | – | 0.2 nM |

Other lines, results leading:

| Kd [1] | binding result (mouse EFNA3) | Kd [2] | Binder |
| --- | --- | --- | --- |
| 0.5 nM | – | – | SC9.20 (antibody, V domains shown) VH: DVQLQESGPGLVKPSQSLSLTCSVTGYSITSGYYWNWIRQFPGNRLEWMAYISYDGSNDYNPSLKNRISITRDTSKNQFFLKLNSVTTEDTATYYCARGYPILFAYWGQGTLVTVSA VL: DIKMTQSPSSMNASLGERVSITCKTSQDINSYLSWLQQKPGKSPKTLIYRANRLVDGVPSRFSGSGSGQDYSLTISSLEYEDMGIYYCLQYDEFPLTFGIGTKLELK |
| – | no binding | 2 nM | SC11.34 (antibody, V domains shown, Murine monoclonal antibody from a hybridoma; also called EFNA3 modulator SC11.34) VH: DVHLQETGPGLVKPSQSLSVTCTVTGYSITSDYAWNWIRQFPGNKLEWMGYISYSGGTRYNPSVKSRISITRDTSKNQFFLQLNSVTTEDTATYYCARGPYAGYPAWFDYWGPGTLVTVSA VL: ENVLTQSPAIMSASLGEKVTMSCRANSSINYMYWYQQKSDASPKLWIYYTSNLAPGVPARFSGSGSGNSYSLTISSMEGEDAATYYCQQFTSSPWTFGGGTKLEIK |
